Source: patent publication US20040001839A1, “Multimers - isolated molecules comprising epitopes containing sulfated moieties, antibodies to such epitopes, and uses thereof” (priority 2000, published 2004)

Assays:
[1] = tested on: Heparin - BSA; test: Western blot with Y1 on SDS-PAGE reducing gels, heparin-BSA after aryl-sulfatase; type: binding; settings: 18 hr at 22° C.
Description: Y1 ligand was further characterized using enzymatic treatments with proteases, glycanases, and […]; Western blotting with Y1, anti-CD42 antibodies, anti-CD162 antibodies and 181, immunoprecipitation using Y1 and anti-CD162 antibodies; FACS analysis using Y1 anti-CD162 antibodies; and sequencing.
The table below summarizes the biochemical experiments preformed to characterize and localize the Y1 binding site on KG-1 cells.
The nitrocellulose membrane was blocked using 5% skim milk for one hour at room temperature. The membrane was then washed 3 times for 5 minutes each with 0.05% Tween 20 in PBS at room temperature. The membrane was incubated with 5 μg/ml Y1-biotin (or 181-biotin) in 2% skim milk in PBS for one hour at room temperature. The membrane was then washed 3 times for 5 minutes each with cold 0.05% Tween 20 in PBS in the cold room (about 4 to about 10° C.). The membrane was then incubated in the cold room with a 1:1000 dilution of SAV-HRP (streptavidin-HRP) (at a final concentration of […]) in 2% skim milk, 0.05% Tween. The dilution was carried out at room temperature (about 25° C.), then the diluted SAV-HRP was cooled on ice for 10-15 minutes before use. The incubation was carried out for 1 hour with gentle shaking. After the incubation with SAV-HRP, the membrane was washed, as above. […]

[2] = tested on: washed platelets; test: Ristocetin-induced agglutination of washed platelets (scFv); type: cell-based, human; settings: for % agglutination: 100% = ristocetin treatment; for % inhibition: ristocetin-induced agglutination
Protocol: Aggregation is determined in PRP due to the presence of thrombotic agents, while agglutination is determined in washed platelets. The effect of Y1 (scFv) on agglutination of washed platelets was tested at various concentrations of Y1. Platelets were pre-incubated with Y1 scFv, Y17 scFv, Y16-scFv, or a control TM-1 scFv for 4 min at 37° C. before being exposed to ristocetin, an inducer of platelet agglutination and aggregation.
Platelet concentrate in acid-citrate-dextrose (ACD) was obtained from a blood bank, platelets were isolated, washed once in buffer containing ACD and saline in a ratio of 1:7. The platelets were centrifuged at 800 g for 10 min after each wash and were resuspended in Tyrodes solution (2 mM MgCl2, 137 mM NaCl, 2.68 mM KCl, 3 mM NaH2PO4, 0.1% glucose, 5 mM Hepes and 0.35% albumin, pH 7.35) and count the number of cells.
For platelet aggregation studies, platelet rich plasma (PRP) and washed platelets were stirred at 500 rpm at 37° C. in whole blood Lumiaggregometer (Chronolog, Havertown, Pa.). The difference in light transmission through the platelet suspension and suspending medium was taken as 100% aggregation. The effect of Y1 on platelet aggregation was evaluated by addition of different concentration of Y1 before the addition of agonist, and the effect was recorded for four minutes.
The effect of Y17-scFv on vWF-dependent agglutination of platelets was tested at different concentrations of Y17.

[3] = tested on: Leukemia Cells; test: FACS of leukemia samples: anti-CD162 versus Y1; type: binding, human; settings: 12 patient samples
Protocol: Analysis of binding of scFv Y1 antibodies and anti-CD162 antibodies to diseased cells also illustrates that scFv Y1 has binding characteristics different from those of anti-CD162 antibodies. […] (Table F). Y1 binds to the leukemic cells in 10 of 12 samples. In contrast, anti-CD162 bound only 5 out of 12 samples. […] Thus, it may be concluded that, in leukemic cells, scFv Y1 binds to a ligand other than that recognized by anti-CD162.
Samples provided from hospitals. Patients sample 30 μl/tube. Add 5 μl /tube of CD33-APC (for AML) or CD19-APC (for B-CLL) or CD38-APC (for Multiple Myeloma). Add 5 μl/tube of CD45-PerCp and 5 μl of scFv-Y1 or control scFv-N31 or CD162-PE (KPL1). Incubate tubes 30 minutes at 4° C. with low shaking. Wash by adding 2 ml PBS and spin 5 minutes at 1200 rpm. Discard supernatant.
For a one step assay continue with the lysis step:
Add 500 μl BD Lysine solution diluted 1:10 with ddH2O (300 μl to patient sample). Vortex at high speed and incubate 12 minutes at 4° C. Wash as above. Discard supernatant. And add 500 μl PBS. The samples are read in the FACS using blood sample acquisition setup according to international standards.
For two or more assays: working buffer is PBS+1% BSA+0.05% sodium azide. Incubations and wash as above.
Lysis of the red blood cells is the final step in the assay, followed by resuspension with 500 μl PBS.

B1: Y1 scFv: fully human scFv clone binding platelets and AML cells; SEQ ID NO:25, heavy chain CDR3 SEQ ID NO:8 (protein, listed as Homo sapiens)
scFv: MKYLLPTAAAGLLLLAAQPAMAEVQLVESGGGVVRPGGSLRLSCAASGFTFDDYGMSWVRQAPGKGLEWVSGINWNGGSTGYADSVKGRFTISRDNAKNSLYLQMNSLRAEDTAVYYCARMRAPVIWGQGTLVTVSRGGGGSGGGGSGGGGSSELTQDPAVSVALGQTVRITCQGDSLRSYYASWYQQKPGQAPVLVIYGKNNRPSGIPDRFSGSSSGNTASLTITGAQAEDEADYYCNSRDSSGNHVVFGGGTKLTVLGAAAEQKLISEEDLNGAA
- Reactivity with Y1 [1]: Binds to
- % agglutination ([2]; scFv 4 μg/ml): 92%
- % inhibition ([2]; scFv 4 μg/ml): 8%
- % inhibition ([2]; scFv 4 μg/ml, listed as Y1): No inhibition
- % agglutination ([2]; scFv 12.5 μg/ml): 67%
- % inhibition ([2]; scFv 12.5 μg/ml): 33%
- % inhibition ([2]; scFv 12.5 μg/ml, listed as Y1): only partial inhibition
- % agglutination ([2]; scFv 25 μg/ml): 23%
- samples in which the antibody binds the leukemic cells [3]: 10 of 12
